Measured values from paper PMC9482650, “Quantitative fragmentomics allow affinity mapping of interactomes” (Nature Communications, 2022).

What was measured:
Experiment in all cases: holdup assay
Parameters in all cases: key: below the threshold = too weak to quantify, mostly under pKd 3.1 to 4
Conditions in all cases: plain residues with an end cap or a label only (N-terminal biotin on a linker: ado-ado)
[1] = target: T1, CARD11, Q9BXL7
T1 sequence (Q9BXL7 662-765, limits assumed, looked up): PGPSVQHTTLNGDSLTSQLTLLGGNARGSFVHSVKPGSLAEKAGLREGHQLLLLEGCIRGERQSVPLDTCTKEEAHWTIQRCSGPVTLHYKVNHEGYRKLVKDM

[2] = target: Inadl_1, Q8NI35
[3] = target: T2, LNX2_3, Q8N448
T2 sequence (Q8N448 463-564, limits assumed, looked up): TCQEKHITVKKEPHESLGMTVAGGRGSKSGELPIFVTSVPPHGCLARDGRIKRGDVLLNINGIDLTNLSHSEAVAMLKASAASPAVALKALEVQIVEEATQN

[4] = target: SCRIB_3, Q14160
[5] = target: GRIP2_5, Q9C0E4
[6] = target: T3, ARHGEF11, O15085
T3 sequence (O15085 42-136, limits assumed, looked up): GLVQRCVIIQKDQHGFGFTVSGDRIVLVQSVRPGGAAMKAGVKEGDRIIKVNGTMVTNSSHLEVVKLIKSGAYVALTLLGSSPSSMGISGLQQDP

[7] = target: NHERF4_2, Q86UT5
[8] = target: FRMPD2_2, Q68DX3
[9] = target: PTPN3, P26045
[10] = target: GRIP2_3, Q9C0E4
[11] = target: MAGI2_6, Q86UL8
[12] = target: MAGI2_2, Q86UL8
[13] = target: T4, NHERF3_1, Q5T2W1
T4 sequence (Q5T2W1 4-100, limits assumed, looked up): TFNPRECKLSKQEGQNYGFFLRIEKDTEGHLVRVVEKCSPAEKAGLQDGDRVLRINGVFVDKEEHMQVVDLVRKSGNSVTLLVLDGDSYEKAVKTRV

[14] = target: MAGI3_2, Q5TCQ9
[15] = target: T5, DFNB31_3, Q9P202
T5 sequence (Q9P202 811-907, limits assumed, looked up): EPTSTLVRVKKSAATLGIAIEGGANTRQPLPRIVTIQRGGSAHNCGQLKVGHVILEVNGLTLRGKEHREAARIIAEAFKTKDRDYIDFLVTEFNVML

[16] = target: GORASP1, Q9BQQ3
[17] = target: T6, RADIL, Q96JH8
T6 sequence (Q96JH8 971-1071, limits assumed, looked up): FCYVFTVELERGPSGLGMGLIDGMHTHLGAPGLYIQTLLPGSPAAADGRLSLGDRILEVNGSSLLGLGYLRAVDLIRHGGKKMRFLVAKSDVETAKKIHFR

[18] = target: Inadl_4, Q8NI35
[19] = target: T7, SNTA1, Q13424
T7 sequence (Q13424 82-180, limits assumed, looked up): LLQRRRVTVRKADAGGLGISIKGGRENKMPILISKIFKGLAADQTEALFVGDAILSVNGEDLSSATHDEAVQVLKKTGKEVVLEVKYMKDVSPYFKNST

[20] = target: T8, GRIP1_3, Q9Y3R0
T8 sequence (Q9Y3R0 247-346, limits assumed, looked up): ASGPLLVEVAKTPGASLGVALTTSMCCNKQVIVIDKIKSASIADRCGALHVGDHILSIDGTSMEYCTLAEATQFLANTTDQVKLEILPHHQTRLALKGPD

[21] = target: MAGI2_5, Q86UL8
[22] = target: DLG1_2, Q12959
[23] = target: HTRA2, O43464
[24] = target: DLG1_3, Q12959
[25] = target: T9, GRIP1_5, Q9Y3R0
T9 sequence (Q9Y3R0 568-668, limits assumed, looked up): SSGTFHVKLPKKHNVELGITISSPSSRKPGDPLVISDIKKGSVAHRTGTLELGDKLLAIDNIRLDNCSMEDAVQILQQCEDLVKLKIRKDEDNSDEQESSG

[26] = target: DLG2_3, Q15700
[27] = target: T10, MPDZ_10, O75970
T10 sequence (O75970 1624-1722, limits assumed, looked up): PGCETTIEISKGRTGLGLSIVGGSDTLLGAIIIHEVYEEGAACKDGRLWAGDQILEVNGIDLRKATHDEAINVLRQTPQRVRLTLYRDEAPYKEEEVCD

Chain of NHERF4_2, Q86UT5 (Q86UT5 220-308): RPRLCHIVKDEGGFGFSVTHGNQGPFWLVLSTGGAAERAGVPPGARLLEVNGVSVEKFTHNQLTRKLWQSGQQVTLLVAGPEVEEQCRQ
Chain of GRIP2_5, Q9C0E4 (Q9C0E4 544-642): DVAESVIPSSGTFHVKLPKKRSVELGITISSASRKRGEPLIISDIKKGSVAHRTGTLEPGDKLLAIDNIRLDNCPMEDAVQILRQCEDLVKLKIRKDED
Chain of HTRA2, O43464 (O43464 355-458): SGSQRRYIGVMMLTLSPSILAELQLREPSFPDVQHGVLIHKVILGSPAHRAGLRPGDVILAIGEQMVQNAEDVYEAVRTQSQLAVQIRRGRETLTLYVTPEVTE
Chain of Inadl_4, Q8NI35 (Q8NI35 547-651): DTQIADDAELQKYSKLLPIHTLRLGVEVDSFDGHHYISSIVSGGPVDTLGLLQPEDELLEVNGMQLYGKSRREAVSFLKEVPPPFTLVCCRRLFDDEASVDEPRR
Chain of MAGI2_2, Q86UL8 (Q86UL8 410-522): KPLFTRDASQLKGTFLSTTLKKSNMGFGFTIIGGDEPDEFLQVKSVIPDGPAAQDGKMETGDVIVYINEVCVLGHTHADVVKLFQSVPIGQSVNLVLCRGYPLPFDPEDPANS
Chain of FRMPD2_2, Q68DX3 (Q68DX3 944-1038): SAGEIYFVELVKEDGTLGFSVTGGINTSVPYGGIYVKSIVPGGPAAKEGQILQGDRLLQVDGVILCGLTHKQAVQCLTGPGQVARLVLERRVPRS
Chain of Inadl_1, Q8NI35 (Q8NI35 113-229): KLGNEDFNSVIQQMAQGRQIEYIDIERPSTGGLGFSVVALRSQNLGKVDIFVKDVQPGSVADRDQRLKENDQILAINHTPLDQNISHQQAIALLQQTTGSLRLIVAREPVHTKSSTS
Chain of GORASP1, Q9BQQ3 (Q9BQQ3 1-208): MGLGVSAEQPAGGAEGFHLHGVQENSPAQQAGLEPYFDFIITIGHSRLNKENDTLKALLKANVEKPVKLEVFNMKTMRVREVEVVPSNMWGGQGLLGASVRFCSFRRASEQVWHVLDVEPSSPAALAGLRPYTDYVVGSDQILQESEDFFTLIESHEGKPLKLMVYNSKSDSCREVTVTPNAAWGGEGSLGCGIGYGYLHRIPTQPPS
Chain of MAGI3_2, Q5TCQ9 (Q5TCQ9 398-503): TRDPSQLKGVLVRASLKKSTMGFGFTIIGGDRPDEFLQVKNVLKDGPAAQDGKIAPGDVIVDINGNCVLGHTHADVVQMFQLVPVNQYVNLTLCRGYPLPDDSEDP
Chain of GRIP2_3, Q9C0E4 (Q9C0E4 238-339): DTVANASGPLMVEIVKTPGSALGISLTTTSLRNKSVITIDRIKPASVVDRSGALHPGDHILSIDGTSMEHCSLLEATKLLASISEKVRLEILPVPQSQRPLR
Chain of MAGI2_5, Q86UL8 (Q86UL8 915-1017): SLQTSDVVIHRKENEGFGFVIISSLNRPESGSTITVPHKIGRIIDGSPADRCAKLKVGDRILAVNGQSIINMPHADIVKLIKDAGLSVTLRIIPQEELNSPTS
Chain of SCRIB_3, Q14160 (Q14160 999-1103): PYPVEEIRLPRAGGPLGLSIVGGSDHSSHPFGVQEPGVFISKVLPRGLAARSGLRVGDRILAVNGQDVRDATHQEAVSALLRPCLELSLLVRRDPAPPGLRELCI
Chain of DLG1_2, Q12959 (Q12959 314-412): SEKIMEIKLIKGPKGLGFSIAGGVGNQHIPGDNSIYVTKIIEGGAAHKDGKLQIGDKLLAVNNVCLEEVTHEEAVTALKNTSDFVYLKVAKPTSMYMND
Chain of MAGI2_6, Q86UL8 (Q86UL8 1141-1229): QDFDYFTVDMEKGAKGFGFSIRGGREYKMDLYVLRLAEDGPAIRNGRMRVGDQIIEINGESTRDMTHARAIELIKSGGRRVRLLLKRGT
Chain of DLG1_3, Q12959 (Q12959 457-571): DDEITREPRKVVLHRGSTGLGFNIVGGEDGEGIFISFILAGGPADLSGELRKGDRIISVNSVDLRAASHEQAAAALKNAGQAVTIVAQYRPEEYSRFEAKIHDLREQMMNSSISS
Chain of PTPN3, P26045 (P26045 505-587): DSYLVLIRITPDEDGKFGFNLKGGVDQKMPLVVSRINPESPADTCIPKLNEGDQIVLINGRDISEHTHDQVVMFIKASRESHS

## EYRKDNKVAA [LSM14A, Q8ND56;Q8ND56-2]
[1]
  pKd: below the threshold
[2]
  pKd: below the threshold
[3]
  pKd: below the threshold
[4]
  pKd: below the threshold
[5]
  pKd: below the threshold
[6]
  pKd: below the threshold
[7]
  pKd: below the threshold
[8]
  pKd: below the threshold
[9]
  pKd: 3.95
[10]
  pKd: below the threshold
[11]
  pKd: below the threshold
[12]
  pKd: below the threshold
[13]
  pKd: below the threshold
[14]
  pKd: below the threshold
[15]
  pKd: below the threshold
[16]
  pKd: below the threshold
[17]
  pKd: below the threshold
[18]
  pKd: below the threshold
[19]
  pKd: below the threshold
[20]
  pKd: below the threshold
[21]
  pKd: below the threshold
[22]
  pKd: below the threshold
[23]
  pKd: below the threshold

## GDHLDRRVVL [VAC14, Q08AM6]
[1]
  pKd: below the threshold
[2]
  pKd: below the threshold
[3]
  pKd: below the threshold
[4]
  pKd: below the threshold
[5]
  pKd: below the threshold
[6]
  pKd: below the threshold
[7]
  pKd: below the threshold
[24]
  pKd: below the threshold
[8]
  pKd: below the threshold
[25]
  pKd: below the threshold
[9]
  pKd: 3.92
[26]
  pKd: below the threshold
[10]
  pKd: below the threshold
[11]
  pKd: below the threshold
[12]
  pKd: below the threshold
[13]
  pKd: below the threshold
[14]
  pKd: below the threshold
[15]
  pKd: 3.82
[16]
  pKd: 3.77
[17]
  pKd: 3.52
[18]
  pKd: below the threshold
[19]
  pKd: below the threshold
[27]
  pKd: 3.51
[20]
  pKd: below the threshold
[21]
  pKd: below the threshold
[22]
  pKd: 3.98
[23]
  pKd: 3.48

## KSTTRSSSSC [NDE1, Q9NXR1;Q9NXR1-2]
[1]
  pKd: below the threshold
[2]
  pKd: below the threshold
[3]
  pKd: below the threshold
[4]
  pKd: below the threshold
[5]
  pKd: below the threshold
[6]
  pKd: below the threshold
[7]
  pKd: below the threshold
[24]
  pKd: below the threshold
[8]
  pKd: below the threshold
[25]
  pKd: below the threshold
[10]
  pKd: below the threshold
[11]
  pKd: below the threshold
[12]
  pKd: below the threshold
[13]
  pKd: 3.91
[14]
  pKd: below the threshold
[16]
  pKd: below the threshold
[17]
  pKd: below the threshold
[18]
  pKd: below the threshold
[19]
  pKd: below the threshold
[27]
  pKd: below the threshold
[20]
  pKd: below the threshold
[21]
  pKd: below the threshold
[22]
  pKd: below the threshold
[23]
  pKd: below the threshold
